Test results published in the supplement of paper PMC10567573.

B1: PBXIP1 (parent)
chain: LPVETLGPASRMDPESERALQAPH

Variants of: B1
Assay: protein stability index of a GFP-peptide fusion (GPS, HEK-293T) (PSI 1-6); higher = more stable
Settings: c terminus: a fixed tail appended
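Also: lentivirally expressed fusions sorted by FACS into six bins by GFP to DsRed ratio, PSI derived from sequencing read proportions per bin multiplied by bin number.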

Protein stability index of substitutions, site by site:
R18: F 4.07 | M 4.73 | K 4.6 | E 4.47 | D 4.44 | Y 3.7 | S 4.19 | V 4.45 | T 4.82 | P 4.18 | Q 4.55 | H 4.77 | A 4.57 | G 4.66 | I 4.29 | C 4.12 | N 4.62 | L 3.69 | W 3.66
A9: T 4.51 | L 3.18 | G 4.33 | C 3.68 | Q 4.59 | P 4.92 | E 4.56 | N 4.63 | K 4.77 | M 4.12 | W 4.42 | I 4.04 | F 3.83 | V 2.51 | R 4.81 | Y 4.26 | H 4.91 | D 4.54
D13: Q 3.7 | L 3.75 | W 3.71 | E 4.66 | I 4.61 | F 4.48 | V 4.38 | A 4.61 | S 3.88 | G 4.41 | N 4.66 | C 3.64 | R 2.62 | K 3.98 | T 4.28 | M 4.11 | H 3.83 | Y 3.73 | P 4.13
S10: G 4.47 | H 4.2 | Y 3.85 | R 4.99 | Q 4.88 | T 4.78 | D 4.92 | K 5.32 | C 4.24 | V 4.44 | M 4.3 | E 5.28 | W 4.4 | N 5.01 | A 5.14 | F 3.75 | I 3.95 | L 3.53
A22: F 4.01 | Y 4.31 | C 4.45 | P 4.27 | H 4.76 | W 3.25 | L 3.98 | I 4.23 | D 4.7 | T 4.7 | E 4.68 | R 4.78 | S 4.36 | G 4.72 | K 4.4 | V 4.2 | M 3.68 | N 4.5 | Q 4.45
M12: P 4.35 | W 4.17 | S 4.11 | A 4.31 | H 4.11 | R 4.33 | C 4.32 | Y 4.09 | E 4.46 | D 4.95 | I 4.5 | T 4.45 | G 4.4 | K 5.34 | F 4.15 | L 4.04 | Q 4.89 | N 4.41 | V 4.34
R11: K 4 | Q 4.09 | V 4.66 | I 2.99 | T 4.2 | H 3.71 | C 4.63 | P 3.98 | A 4.18 | E 4.48 | F 3.6 | N 4.4 | S 4.01 | G 3.95 | L 3.66 | M 3.96 | Y 3.67 | W 3.7
A19: L 4.22 | M 4.21 | R 4.09 | W 3.82 | N 4.45 | H 4.31 | K 4.32 | P 4.71 | S 4.19 | G 4.23 | D 4.41 | F 4.05 | T 4.63 | E 4.68 | Y 3.64 | V 4.46 | C 4.48 | I 4 | Q 4.46
Q21: T 4.55 | D 4 | P 4.53 | E 4.79 | S 4.45 | K 4.28 | Y 3.67 | M 4.05 | N 4.28 | I 4.09 | V 4.39 | A 3.93 | H 3.92 | C 4.14 | W 3.22 | F 3.8 | L 3.96 | R 4.44 | G 3.97
P8: V 4.83 | E 5.52 | F 4.19 | G 5.57 | S 4.64 | I 4.89 | T 5.31 | C 5.37 | D 5.46 | A 5.03 | Q 5.1 | H 4.51 | R 4.73 | N 5.28 | L 4.99 | W 4.01 | M 4.16 | K 4.39 | Y 4.67
E17: P 4.18 | Y 3.92 | M 3.9 | C 3.76 | Q 4.06 | L 3.72 | G 4.13 | T 4.23 | H 3.92 | S 4.56 | A 3.65 | I 3.1 | F 3.61 | D 3.97 | K 4.19 | V 4.62 | N 4.29 | R 3.91 | W 3.4
S16: T 4.35 | P 3.95 | C 4.49 | V 4.31 | W 4.12 | H 4.25 | L 2.83 | M 4.09 | Y 4.05 | Q 4.53 | G 4.56 | K 4.34 | R 3.56 | I 3.77 | D 4.54 | E 4.48 | F 3.85 | A 4.16 | N 4.54
E15: W 3.1 | C 3.82 | R 4.19 | G 3.99 | V 4.28 | M 3.48 | T 4.02 | Y 3.95 | F 3.81 | A 4.35 | Q 4.26 | L 4.03 | I 3.27 | K 4.04 | P 3.92 | D 5.08 | S 3.81 | N 4.47 | H 4.13
L6: A 5.19 | F 4.81 | I 3.73 | D 5.48 | W 4.72 | N 5.42 | R 5.28 | C 4.55 | V 4.45 | P 5.41 | K 5.03 | Q 5.78 | T 5.37 | G 4.71 | E 5.21 | Y 5.53 | M 5.3 | S 5.44 | H 5.09
P14: Y 3.72 | W 3.81 | K 4.43 | G 3.56 | F 4.32 | C 4.13 | D 4.44 | M 4.04 | T 4.37 | A 4.62 | V 4.42 | H 3.61 | L 3.91 | R 4.19 | S 4.09 | N 4 | I 4.22 | E 4.61 | Q 4.75
G7: F 4.62 | Y 4.63 | Q 4.99 | D 5.29 | A 5.51 | I 4.76 | V 4.95 | W 4.63 | R 5.12 | S 5.42 | T 5.37 | C 5 | E 5.51 | N 5.24 | M 4.03 | L 5.23 | K 5.55 | P 4.61 | H 4.54
T5: Y 4.93
P23: G 5.01 | A 4.09 | E 4.8 | N 4.26 | L 4.49 | M 4.16 | C 4.19 | F 3.98 | I 4.28 | K 4.57 | Q 4.06 | H 4.45 | D 4.6
L20: C 3.99 | R 4.86 | M 4.45 | N 4.42 | D 4.92 | E 4.81 | S 4.49 | K 4.41 | W 3.7 | F 4.28 | H 4.27 | P 4.72 | I 4.55 | Y 4.14 | G 4.46 | A 4.26 | T 4.58 | Q 4.7 | V 3.82
